Experimental findings from US20240182561A1 (Regeneron, published 2024) are described below.

Test [1] concerns the target T1, human CACNG1 expressed on cells (human, UniProt Q06432 1-222). The test can be described thus: cell-based or functional assay.
Test [2] deals with T1, human CACNG1 expressed on cells. The test can be described thus: cell-based or functional assay. This is another data set of the same source.
Test [3] shares this target. The test can be described thus: cell-based or functional assay. This is another data set of the same source.
Test [4] shares this target. The test can be described thus: live myotubes (human myotubes per paragraph 866) incubated with antibody, detection with Alexa 647-conjugated F(ab')2 secondary antibody, Hoechst counterstain, fluorescence imaging; titration 100 to 0.02 nM and 0 nM.
For test [5] the target is unchanged. The test can be described thus: imaging cell binding, HuSKM myotubes. The procedure, abridged: (§1)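 Myotubes (human HuSKM after 6 days, mouse C2C12 after 3 days of differentiation) and HEK293 lines expressing human or mouse CACNG1 are incubated with anti-CACNG1 antibodies. After washing and fixation with Hoechst, fluorescence is imaged and expressed as RFU.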
Test [6] concerns the target T2, mouse CACNG1 expressed on cells (mouse, UniProt O70578 1-223).
T2 sequence (looked up): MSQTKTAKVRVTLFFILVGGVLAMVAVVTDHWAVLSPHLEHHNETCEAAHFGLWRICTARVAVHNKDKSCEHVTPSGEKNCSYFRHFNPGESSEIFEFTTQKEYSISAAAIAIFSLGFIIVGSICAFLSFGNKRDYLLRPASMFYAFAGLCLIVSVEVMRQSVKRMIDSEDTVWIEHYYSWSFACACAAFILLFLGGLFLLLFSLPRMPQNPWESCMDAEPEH
The experiment in a line: cell-based or functional assay.

The target of test [7] is T1, human CACNG1 expressed on cells. The experiment in a line: cell-based or functional assay. The source holds these as a separate data set.
The target in test [8] is T2, mouse CACNG1 expressed on cells. The test can be described thus: imaging cell binding, C2C12 mouse myotubes. The method, then: (§2) HuSKM were seeded in collagen-coated 96-well plates (Greiner Bio-One #655956) at 8,500 cells/well and grown for 24 hours. The growth media was changed to MyoTonic Differentiation Media (Cook Myosite Cat #MD-5555) and replaced every 2 days. Myotubes were assayed after 6 days of differentiation. C2C12 mouse myoblasts were maintained in DMEM with 10% FBS and 1% penicillin-streptomycin supplement and grown in a 37° C. incubator with 5% CO₂. C2C12 cells were seeded in collagen-coated 96-well plates (Greiner Bio-One #655956) at 10,000 cells/well for the cell binding assay and 5,000 cells/well for the cell killing assay. After 24 hours, growth media was replaced with differentiation media (DMEM with 2% horse serum) and placed in a 37° C. incubator with 7.5% CO₂. C2C12 myotubes were assayed after 3 days of differentiation. HEK293/hCACNG1, HEK293/mCACNG1, and HEK293 cells were seeded at 10,000 cells (cell binding assay) or 2,000 (cell killing assay) per well in 96-well black collagen coated plates (Greiner Bio-One, cat #655956) in complete growth media and grown overnight at 37° C. in 5% CO₂.
(§3) Relative binding of anti-CACNG1 antibodies was assessed across the entire panel of cell lines via imaging analysis. […] After one wash with antibody dilution buffer, samples were fixed in CytoFix (BD Biosciences, Cat #554655) diluted 1:1 in PBS and supplemented with a 1:2000 dilution of Hoechst 33342 (Thermo, Cat #H1399) for 20 minutes on ice. Images were acquired with a 10× objective on the Opera Phenix (Perkin Elmer) and relative fluorescence units (RFU) was determined using Harmony software (Perkin Elmer).

The target in test [9] is T1, human CACNG1 expressed on cells. The test can be described thus: imaging cell binding, HEK293/hCACNG1. The method, then:
as §2, §3

Test [10] shares this target. The test can be described thus: cell-based or functional assay. The source holds these as a separate data set.
Test [11] concerns the target T3, nanodisc embedded human CACNG1 expressed with a C-terminal PADRE-Flag-His tag (human, UniProt Q06432 1-222).
T3 construct: Captured on an anti-His Biacore surface; also called human CACNG1 nanodisc; CACNG1 nanodisc; not shown: C-terminal tag
The experiment in a line: SPR, anti-His-captured nanodisc, 25 C. Summed up: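 Biacore T200, anti-His-captured CACNG1 nanodisc, HBS-N++ buffer pH 7.4 with 1 mM CaCl₂/0.5 mM MgCl₂; antibodies 300–12 nM (5-fold) at 30 μL/min, 2 min association, 5 min dissociation.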

The target of test [12] is T1, human CACNG1 expressed on cells. The experiment in a line: imaging cell binding, HuSKM myotubes. The method, then:
as §2, §3
The source holds these as a separate data set.

For test [13] the target is unchanged. The experiment in a line: cell-based or functional assay. This is another data set of the same source.
For test [14] the target is unchanged. The test can be described thus: cell-based or functional assay. The source holds these as a separate data set.
The target is the same in test [15]. The experiment in a line: cell-based or functional assay. The source holds these as a separate data set.
In test [16] the target is T2, mouse CACNG1 expressed on cells. The experiment in a line: biosensor conjugate imaging (AF647), 6.7 nM, C2C12 mouse myotubes. As for the experimental part: The growth media was changed to MyoTonic Differentiation Media (Cook Myosite Cat #MD-5555) and replaced every 2 days. C2C12 mouse myoblasts were maintained in DMEM with 10% FBS and 1% penicillin-streptomycin supplement and grown in a 37° C. incubator with 5% CO₂. […] After 24 hours, growth media was replaced with differentiation media (DMEM with 2% horse serum) and placed in a 37° C. incubator with 7.5% CO₂.

Test [17] has as its target T1, human CACNG1 expressed on cells. The test can be described thus: imaging cell binding, HEK293/hCACNG1. Summed up: as §1
The source holds these as a separate data set.

Test [18] shares this target. The test can be described thus: cell-based or functional assay. The source holds these as a separate data set.
Test [19] shares this target. The experiment in a line: cell-based or functional assay. This is another data set of the same source.
Test [20] deals with T2, mouse CACNG1 expressed on cells. The experiment in a line: imaging cell binding, HEK293/mCACNG1. Summed up:
as §1

The target in test [21] is T1, human CACNG1 expressed on cells. The experiment in a line: cell-based or functional assay. This is another data set of the same source.
The target of test [22] is T2, mouse CACNG1 expressed on cells. The test can be described thus: imaging cell binding, C2C12 mouse myotubes. Summed up:
as §1
The source holds these as a separate data set.

Read-outs that look alike come from different tables or passages of the source.

T1 sequence (Q06432 whole entry): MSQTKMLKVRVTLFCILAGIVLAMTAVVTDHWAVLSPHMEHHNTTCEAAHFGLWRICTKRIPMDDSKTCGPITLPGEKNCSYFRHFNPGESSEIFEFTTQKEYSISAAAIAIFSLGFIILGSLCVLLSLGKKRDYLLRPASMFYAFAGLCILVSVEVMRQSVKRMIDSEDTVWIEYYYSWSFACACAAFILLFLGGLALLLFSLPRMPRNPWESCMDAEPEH
T3 sequence (Q06432 whole entry): as above

B1: REGN14573-M3004 (antibody, human IgG1, lambda, N297Q)
heavy chain: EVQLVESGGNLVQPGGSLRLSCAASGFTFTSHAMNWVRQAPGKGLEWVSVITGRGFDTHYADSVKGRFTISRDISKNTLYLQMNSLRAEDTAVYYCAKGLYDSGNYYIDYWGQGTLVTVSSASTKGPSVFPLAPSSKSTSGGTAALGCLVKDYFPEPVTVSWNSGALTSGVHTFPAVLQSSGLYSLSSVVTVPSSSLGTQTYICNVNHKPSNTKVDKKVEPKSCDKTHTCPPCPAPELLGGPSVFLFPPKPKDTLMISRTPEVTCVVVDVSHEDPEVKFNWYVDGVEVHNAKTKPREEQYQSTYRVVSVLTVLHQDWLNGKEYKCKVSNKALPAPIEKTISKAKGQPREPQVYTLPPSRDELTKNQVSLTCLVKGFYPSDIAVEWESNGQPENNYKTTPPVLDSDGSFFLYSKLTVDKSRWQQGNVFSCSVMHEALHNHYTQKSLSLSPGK
light chain: QSVLTQPPSVSAAPGQKVTISCSGSSSNIGNNYVSWYQQLPGTAPKLLIYDNNKRPSGIPDRFSGSKSGTSATLGITGLQTGDEADYYCGTWDLSLSFNWVFGGGTKLTVLGQPKAAPSVTLFPPSSEELQANKATLVCLISDFYPGAVTVAWKADSSPVKAGVETTTPSKQSNNKYAASSYLSLTPEQWKSHRSYSCQVTHEGSTVEKTVAPTECS
modifications: N297Q; DHT linker-payload M3004 conjugated, DAR about 4
In the case of B1, the “EC50 of androgen receptor luciferase reporter activation (RLU) by the DHT conjugate REGN14573-M3004 in hCACNG1.AR.Luc LNCaP cells, 48 hours; concentration adjusted for DAR” value in test [1] was 213 nM. In test [2], the “EC50 of androgen receptor luciferase reporter activation (RLU) by the DHT conjugate REGN14573-M3004 in hCACNG1.AR.Luc LNCaP cells, 24 hours; concentration adjusted for DAR” value was determined as 214 nM. Moreover, the “EC50 of androgen receptor luciferase reporter activation (RLU) by the DHT conjugate REGN14573-M3004 in hCACNG1.AR.Luc LNCaP cells, 72 hours; concentration adjusted for DAR” value in test [3] was found to be 185 nM.

B2: REGN7854 (antibody, human IgG4 S228P, kappa, V domains shown)
VH: QVQLVQSGAEVKKPGASVKVSCKASGYAFTTYGITWVRQAPGQGLEWMGWISAYNGNTNYAEKVQGRFTMTTDTSTNTAYMELRSLRSDDTAVYFCARKGHYGSGTYYNPFGFDFWGQGTMVTVSS
VL: EIVLTQSPGTLSLSPGERATLSCRASQSVSSSYLAWYQQKPGQAPRLLIYGASSRATGIPDRFSGSGSGTDFTLTISRLEPEDFALYFCQQYYGSPWTFGQGTKVEIKR
notes: also called CACNG1 Ab
Turning to B2, the binding result in test [4] was “binds”.

B3: REGN9909 (antibody, mouse IgG2a, kappa, V domains shown)
VH: EVQLLESGGGLVQPGGSLRLSCAASGFTFNNYGMSWVRQGPGKGLEWVSSISGSGGTTFYADSVKGRFTISRDNSKNTLYLQMNSLRAEDTAVYYCGKGGYCSSSGCRHYGMDVWGQGTTVTVSS
VL: QSVLTQPPSASGTPGQRVTISCSGSSSNIGNNYIYWYQRLPGTTPKLLIYRNNQRPSGVPDRFSGSKSGTSASLAISGLRSEDEADYYCAAWDDTLSGYVFGTGTKVTVLR
notes: mIgG2a
By EC50 is commonly meant the concentration giving half of the maximal effect. Low readings indicate a more potent agent, high ones a less potent agent. By Kd is commonly meant the free concentration of one partner at which half of the binding sites on the other are occupied at equilibrium, for simple one-to-one binding. Broadly, the koff is the rate constant with which the complex falls apart. As a reminder, the kon is the second-order rate constant of association. As for B3, in [5], the EC50 is 6.51 nM and the S/N worked out at 141 fold. In [6], the “% KILL, indirect cell killing, HEK293/mCACNG1” value was 88.5% and the “EC50/IC50, indirect cell killing, HEK293/mCACNG1” value was found to be 0.0612 nM. Besides, in test [7], the “% KILL, indirect cell killing, HEK293/hCACNG1” value was found to be 95.2%; the “% KILL, indirect cell killing, HuSKM” value is 99.5%; the “EC50/IC50, indirect cell killing, HEK293/hCACNG1” value amounted to 0.00235 nM; the “EC50/IC50, indirect cell killing, HuSKM” value amounted to 0.0183 nM. In addition, in [8], the EC50 came to 8.3 nM and the S/N worked out at 4.2 fold. Also, in test [9], the EC50 amounted to 1.6 nM and the S/N stood at 5.4 fold. The “EC50/IC50, indirect cell killing, HuSKM” value in test [10] was found to be 0.00968 nM. In test [11], the Kd stood at 4.15 nM, the koff turned out to be 0.00137 s⁻¹, the kon came to 331000 M⁻¹ s⁻¹ and the “mAb bound at 300 nM” value was found to be 22 RU. Further, the t1/2 in [11] worked out at 8.4 min. In test [12], this molecule yielded an EC50 of 14 nM and a S/N of 171 fold.

B4: REGN14570 (antibody, human IgG1, kappa, N297Q)
heavy: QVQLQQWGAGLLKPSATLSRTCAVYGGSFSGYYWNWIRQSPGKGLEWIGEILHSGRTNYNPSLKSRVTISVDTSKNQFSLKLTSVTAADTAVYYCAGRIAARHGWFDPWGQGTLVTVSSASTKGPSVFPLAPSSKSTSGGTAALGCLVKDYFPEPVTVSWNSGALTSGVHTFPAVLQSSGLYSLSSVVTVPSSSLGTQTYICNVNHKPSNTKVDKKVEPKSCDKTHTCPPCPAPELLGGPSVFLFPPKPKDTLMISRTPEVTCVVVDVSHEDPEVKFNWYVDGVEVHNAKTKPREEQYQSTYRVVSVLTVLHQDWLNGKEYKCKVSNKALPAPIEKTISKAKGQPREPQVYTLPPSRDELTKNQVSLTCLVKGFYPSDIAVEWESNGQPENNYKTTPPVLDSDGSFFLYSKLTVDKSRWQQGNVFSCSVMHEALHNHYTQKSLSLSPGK
light: DIQMTQSPSSVSTSVGDRVTISCRASQDIRKWLAWYQQKPGKAPKLLIYATSSLQSGVPSRFSGSGSGTDFTLTISSLQPEDFATYFCQQANSFPFTFGQGTKLEIKRTVAAPSVFIFPPSDEQLKSGTASVVCLLNNFYPREAKVQWKVDNALQSGNSQESVTEQDSKDSTYSLSSTLTLSKADYEKHKVYACEVTHQGLSSPVTKSFNRGEC
modifications: conjugated to the M378-Biosensor probe (Example 15) or to budesonide linker-payload M404-M3123, DAR 4.1 (Example 14); attachment residues not stated for these lots
notes: hIgG1 N297Q; Tested only as conjugates; also called REGN14570-M378-Biosensor; REGN14570-M404-M3123
Consider B4, for which, in test [13], the “EC50 of androgen receptor luciferase reporter activation (RLU) by the DHT conjugate REGN14570-M3004 in hCACNG1.AR.Luc LNCaP cells, 48 hours; concentration adjusted for DAR” value amounted to 5.83 nM. Also, the “EC50 of androgen receptor luciferase reporter activation (RLU) by the DHT conjugate REGN14570-M3004 in hCACNG1.AR.Luc LNCaP cells, 72 hours; concentration adjusted for DAR” value in [14] amounted to 6.65 nM. Also, the “EC50 of androgen receptor luciferase reporter activation (RLU) by the DHT conjugate REGN14570-M3004 in hCACNG1.AR.Luc LNCaP cells, 24 hours; concentration adjusted for DAR” value in test [15] stood at 2 nM. Moreover, the binding result in test [16] is “binds”.

B5: REGN5972 (antibody, V domains shown)
VH: QVQLVESGGGVVQPGRSLRLSCTASGFTFRSYGMHWVRQAPGKGLEWVSVIWIDGNNIYYADSVKGRFTISRDNSKNTLYLQMDSLRAEDTAVYYCARRLAITSAAPFDYWGQGTLVTVSS
VL: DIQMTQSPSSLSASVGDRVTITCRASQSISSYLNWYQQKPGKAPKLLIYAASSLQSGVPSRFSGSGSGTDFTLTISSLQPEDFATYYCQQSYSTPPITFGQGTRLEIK
notes: also called H4H31265P2/REGN5972; CACNG1 hIgG1 antibody
In the case of B5, in test [17], the EC50 was found to be 6.6 nM and the S/N was found to be 172 fold. In test [5], this molecule gave a half-maximal effective concentration (EC50) of 2.9 nM and a S/N of 313 fold. For the same molecule, in test [6], the “% KILL, indirect cell killing, C2C12” value came out at 0%; the “% KILL, indirect cell killing, HEK293/mCACNG1” value was determined as 11%; the “EC50/IC50, indirect cell killing, C2C12” value was greater than 10 nM; the “EC50/IC50, indirect cell killing, HEK293/mCACNG1” value was greater than 1 nM. Further, in [7], the “% KILL, indirect cell killing, HEK293/hCACNG1” value came out at 95.4%; the “% KILL, indirect cell killing, HuSKM” value is 97.4%; the “EC50/IC50, indirect cell killing, HEK293/hCACNG1” value turned out to be 0.00139 nM; the “EC50/IC50, indirect cell killing, HuSKM” value came to 0.585 nM. The “EC50 of androgen receptor luciferase reporter activation (RLU) by the DHT conjugate REGN5972-M3004 in hCACNG1.AR.Luc LNCaP cells, 72 hours; concentration adjusted for DAR” value in [18] amounted to 7.79 nM. Further, the “EC50 of androgen receptor luciferase reporter activation (RLU) by the DHT conjugate REGN5972-M3004 in hCACNG1.AR.Luc LNCaP cells, 48 hours; concentration adjusted for DAR” value in test [19] came to 6.49 nM. In [20], this molecule displayed an EC50 greater than 100 nM and a S/N of 5.3 fold. The “EC50 of androgen receptor luciferase reporter activation (RLU) by the DHT conjugate REGN5972-M3004 in hCACNG1.AR.Luc LNCaP cells, 24 hours; concentration adjusted for DAR” value in test [21] came to 19 nM. Also, in test [22], the S/N was 1.6 fold.
